Paper PMC314469, “Protein Interaction Networks by Proteome Peptide Scanning” (PLoS Biology, 2004)
Blank lines part the entries; values can stand above or below the binder they belong to.

Columns and labels:
Experiment in all cases: SPOT array
[1] = biological target: T1, Boi1 SH3 (BOI1_YEAST), P38041
T1 chain: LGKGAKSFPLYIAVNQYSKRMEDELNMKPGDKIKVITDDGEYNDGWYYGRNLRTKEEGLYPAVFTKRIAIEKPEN

[2] = biological target: T2, Boi2 SH3 (BOI2_YEAST), P39969
T2 chain: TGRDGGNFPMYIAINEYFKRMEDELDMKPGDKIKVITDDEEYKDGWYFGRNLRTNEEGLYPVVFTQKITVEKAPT

[3] = biological target: T3, Rvs167 SH3 (RV167_YEAST), P39743
T3 chain: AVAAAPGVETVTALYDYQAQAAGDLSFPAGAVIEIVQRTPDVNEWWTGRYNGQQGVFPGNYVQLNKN

[4] = biological target: T4, Yfr024 SH3 (LSB3_YEAST), P43603
T4 chain: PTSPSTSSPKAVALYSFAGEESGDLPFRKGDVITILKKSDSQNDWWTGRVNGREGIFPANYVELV

[5] = biological target: T5, Yhr016c SH3 (YSC84_YEAST), P32793
T5 chain: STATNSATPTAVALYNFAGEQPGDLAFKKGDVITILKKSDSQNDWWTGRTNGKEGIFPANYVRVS

normalised SPOT signal, Boehringer light units (BLU); mean over the file's lines of this peptide [1]: 154
normalised SPOT signal, Boehringer light units (BLU); mean over the file's lines of this peptide [2]: 52.1
normalised SPOT signal, Boehringer light units (BLU); mean over the file's lines of this peptide [3]: 6.8
normalised SPOT signal, Boehringer light units (BLU); mean over the file's lines of this peptide [4]: 249
normalised SPOT signal, Boehringer light units (BLU); mean over the file's lines of this peptide [5]: 124
B4: YMR044W 286-299 (peptide)
chain: KPKPPKPIKYHFED

normalised SPOT signal, Boehringer light units (BLU); mean over the file's lines of this peptide [1]: 166
normalised SPOT signal, Boehringer light units (BLU); mean over the file's lines of this peptide [2]: 46
normalised SPOT signal, Boehringer light units (BLU); mean over the file's lines of this peptide [3]: 50.8
normalised SPOT signal, Boehringer light units (BLU); mean over the file's lines of this peptide [4]: 396
normalised SPOT signal, Boehringer light units (BLU); mean over the file's lines of this peptide [5]: 210
B6: YNL106C 1157-1170 (peptide)
chain: KSKPKVPAKNPELE

normalised SPOT signal, Boehringer light units (BLU); mean over the file's lines of this peptide [1]: 46
normalised SPOT signal, Boehringer light units (BLU); mean over the file's lines of this peptide [2]: 34.8
normalised SPOT signal, Boehringer light units (BLU); mean over the file's lines of this peptide [3]: 27.4
normalised SPOT signal, Boehringer light units (BLU); mean over the file's lines of this peptide [4]: 1930
normalised SPOT signal, Boehringer light units (BLU); mean over the file's lines of this peptide [5]: 133
B7: YPR171W 354-367 (peptide)
chain: KTKPSIPPKKVELN

normalised SPOT signal, Boehringer light units (BLU); mean over the file's lines of this peptide [1]: 310
normalised SPOT signal, Boehringer light units (BLU); mean over the file's lines of this peptide [2]: 15.7
normalised SPOT signal, Boehringer light units (BLU); mean over the file's lines of this peptide [3]: 30.9
normalised SPOT signal, Boehringer light units (BLU); mean over the file's lines of this peptide [4]: 222
normalised SPOT signal, Boehringer light units (BLU); mean over the file's lines of this peptide [5]: 172
B8: YPL093W 387-400 (peptide)
chain: KYDPEDPNRRKLAR

normalised SPOT signal, Boehringer light units (BLU); mean over the file's lines of this peptide [1]: 117
normalised SPOT signal, Boehringer light units (BLU); mean over the file's lines of this peptide [2]: 122
normalised SPOT signal, Boehringer light units (BLU); mean over the file's lines of this peptide [3]: 156
normalised SPOT signal, Boehringer light units (BLU); mean over the file's lines of this peptide [4]: 253
normalised SPOT signal, Boehringer light units (BLU); mean over the file's lines of this peptide [5]: 320
B10: YBR156C 161-174 (peptide)
chain: KSSPWSPYKVEKVL

normalised SPOT signal, Boehringer light units (BLU); mean over the file's lines of this peptide [1]: 423
normalised SPOT signal, Boehringer light units (BLU); mean over the file's lines of this peptide [2]: 38.5
normalised SPOT signal, Boehringer light units (BLU); mean over the file's lines of this peptide [3]: 89
normalised SPOT signal, Boehringer light units (BLU); mean over the file's lines of this peptide [4]: 3400
normalised SPOT signal, Boehringer light units (BLU); mean over the file's lines of this peptide [5]: 708
B11: YDR128W 52-65 (peptide)
chain: LDDPFTPPRWLHHI

normalised SPOT signal, Boehringer light units (BLU); mean over the file's lines of this peptide [1]: 1140
normalised SPOT signal, Boehringer light units (BLU); mean over the file's lines of this peptide [2]: 146
normalised SPOT signal, Boehringer light units (BLU); mean over the file's lines of this peptide [3]: 12100
normalised SPOT signal, Boehringer light units (BLU); mean over the file's lines of this peptide [4]: 25100
normalised SPOT signal, Boehringer light units (BLU); mean over the file's lines of this peptide [5]: 992
B12: YJR113C 102-115 (peptide)
chain: KSVPIPPRKNATLD

normalised SPOT signal, Boehringer light units (BLU); mean over the file's lines of this peptide [1]: 180
normalised SPOT signal, Boehringer light units (BLU); mean over the file's lines of this peptide [2]: 33.5
normalised SPOT signal, Boehringer light units (BLU); mean over the file's lines of this peptide [3]: 26.7
normalised SPOT signal, Boehringer light units (BLU); mean over the file's lines of this peptide [4]: 252
normalised SPOT signal, Boehringer light units (BLU); mean over the file's lines of this peptide [5]: 15.7
B13: YLL021W 1085-1098 (peptide)
chain: KNSPLAPIKKNVEL

normalised SPOT signal, Boehringer light units (BLU); mean over the file's lines of this peptide [1]: 146
normalised SPOT signal, Boehringer light units (BLU); mean over the file's lines of this peptide [2]: 66.7
normalised SPOT signal, Boehringer light units (BLU); mean over the file's lines of this peptide [3]: 48.2
normalised SPOT signal, Boehringer light units (BLU); mean over the file's lines of this peptide [4]: 20.9
normalised SPOT signal, Boehringer light units (BLU); mean over the file's lines of this peptide [5]: 266
B14: YBR235W 52-65 (peptide)
chain: KYDPDNPNKDKLGT

normalised SPOT signal, Boehringer light units (BLU); mean over the file's lines of this peptide [1]: 153
normalised SPOT signal, Boehringer light units (BLU); mean over the file's lines of this peptide [2]: 71.3
normalised SPOT signal, Boehringer light units (BLU); mean over the file's lines of this peptide [3]: 8.2
normalised SPOT signal, Boehringer light units (BLU); mean over the file's lines of this peptide [4]: 16700
normalised SPOT signal, Boehringer light units (BLU); mean over the file's lines of this peptide [5]: 236
B16: YNL020C 606-619 (peptide)
chain: KTKPTPPPKPSHLK

normalised SPOT signal, Boehringer light units (BLU); mean over the file's lines of this peptide [1]: 112
normalised SPOT signal, Boehringer light units (BLU); mean over the file's lines of this peptide [2]: 183
normalised SPOT signal, Boehringer light units (BLU); mean over the file's lines of this peptide [3]: 57.7
normalised SPOT signal, Boehringer light units (BLU); mean over the file's lines of this peptide [4]: 220
normalised SPOT signal, Boehringer light units (BLU); mean over the file's lines of this peptide [5]: 229
B18: YBR108W 84-97 (peptide)
chain: KSFPPPPLKPGQKT

normalised SPOT signal, Boehringer light units (BLU); mean over the file's lines of this peptide [1]: 101
normalised SPOT signal, Boehringer light units (BLU); mean over the file's lines of this peptide [2]: 53.9
normalised SPOT signal, Boehringer light units (BLU); mean over the file's lines of this peptide [3]: 17.8
normalised SPOT signal, Boehringer light units (BLU); mean over the file's lines of this peptide [4]: 280
normalised SPOT signal, Boehringer light units (BLU); mean over the file's lines of this peptide [5]: 192
B19: YOR058C 193-206 (peptide)
chain: KTVPQSPKKPLSLL

normalised SPOT signal, Boehringer light units (BLU); mean over the file's lines of this peptide [1]: 151
normalised SPOT signal, Boehringer light units (BLU); mean over the file's lines of this peptide [2]: 47.6
normalised SPOT signal, Boehringer light units (BLU); mean over the file's lines of this peptide [3]: 242
normalised SPOT signal, Boehringer light units (BLU); mean over the file's lines of this peptide [4]: 342
normalised SPOT signal, Boehringer light units (BLU); mean over the file's lines of this peptide [5]: 187
B20: YDR026C 223-236 (peptide)
chain: KRTPKIPEKDVKSD

Continued, binder first:

B1: YGL085W 143-156 (peptide)
chain: KNLPTIPIRLSGID
normalised SPOT signal, Boehringer light units (BLU); mean over the file's lines of this peptide [1]: 2120
normalised SPOT signal, Boehringer light units (BLU); mean over the file's lines of this peptide [2]: 45.2
normalised SPOT signal, Boehringer light units (BLU); mean over the file's lines of this peptide [3]: 29100
normalised SPOT signal, Boehringer light units (BLU); mean over the file's lines of this peptide [4]: 10800
normalised SPOT signal, Boehringer light units (BLU); mean over the file's lines of this peptide [5]: 3830

B2: YBL101C 851-864 (peptide)
chain: KPDPESPSKLRHYE
normalised SPOT signal, Boehringer light units (BLU); mean over the file's lines of this peptide [1]: 69.8
normalised SPOT signal, Boehringer light units (BLU); mean over the file's lines of this peptide [2]: 58.5
normalised SPOT signal, Boehringer light units (BLU); mean over the file's lines of this peptide [3]: 22.9
normalised SPOT signal, Boehringer light units (BLU); mean over the file's lines of this peptide [4]: 41.3
normalised SPOT signal, Boehringer light units (BLU); mean over the file's lines of this peptide [5]: 241

B3: YPR171W 469-482 (peptide)
chain: KRPPTAPQRKISLP
normalised SPOT signal, Boehringer light units (BLU); mean over the file's lines of this peptide [1]: 285
normalised SPOT signal, Boehringer light units (BLU); mean over the file's lines of this peptide [2]: 51.3
normalised SPOT signal, Boehringer light units (BLU); mean over the file's lines of this peptide [3]: 605
normalised SPOT signal, Boehringer light units (BLU); mean over the file's lines of this peptide [4]: 8630
normalised SPOT signal, Boehringer light units (BLU); mean over the file's lines of this peptide [5]: 1820

B5: YDR425W 253-266 (peptide)
chain: LAPPLSPTKPSPLH
normalised SPOT signal, Boehringer light units (BLU); mean over the file's lines of this peptide [1]: 81.4
normalised SPOT signal, Boehringer light units (BLU); mean over the file's lines of this peptide [2]: 6.5
normalised SPOT signal, Boehringer light units (BLU); mean over the file's lines of this peptide [3]: 30.7
normalised SPOT signal, Boehringer light units (BLU); mean over the file's lines of this peptide [4]: 111
normalised SPOT signal, Boehringer light units (BLU); mean over the file's lines of this peptide [5]: 77.1

B9: YCR087W 13-26 (peptide)
chain: LSIPDLPLRIHNQT
normalised SPOT signal, Boehringer light units (BLU); mean over the file's lines of this peptide [1]: 69.2
normalised SPOT signal, Boehringer light units (BLU); mean over the file's lines of this peptide [2]: 35.3
normalised SPOT signal, Boehringer light units (BLU); mean over the file's lines of this peptide [3]: 2710
normalised SPOT signal, Boehringer light units (BLU); mean over the file's lines of this peptide [4]: 25400
normalised SPOT signal, Boehringer light units (BLU); mean over the file's lines of this peptide [5]: 31200

B15: YKL139W 32-45 (peptide)
chain: LARPPPPKRIRTDS
normalised SPOT signal, Boehringer light units (BLU); mean over the file's lines of this peptide [1]: 528
normalised SPOT signal, Boehringer light units (BLU); mean over the file's lines of this peptide [2]: 70.2
normalised SPOT signal, Boehringer light units (BLU); mean over the file's lines of this peptide [3]: 1260
normalised SPOT signal, Boehringer light units (BLU); mean over the file's lines of this peptide [4]: 15700
normalised SPOT signal, Boehringer light units (BLU); mean over the file's lines of this peptide [5]: 3210

B17: YCR102C 158-171 (peptide)
chain: KWEPSTPQRNGPIL
normalised SPOT signal, Boehringer light units (BLU); mean over the file's lines of this peptide [1]: 143
normalised SPOT signal, Boehringer light units (BLU); mean over the file's lines of this peptide [2]: 31.6
normalised SPOT signal, Boehringer light units (BLU); mean over the file's lines of this peptide [3]: 31.1
normalised SPOT signal, Boehringer light units (BLU); mean over the file's lines of this peptide [4]: 3400
normalised SPOT signal, Boehringer light units (BLU); mean over the file's lines of this peptide [5]: 1620

B21: YLR460C 166-179 (peptide)
chain: KWEPSTPQRKGPIL
normalised SPOT signal, Boehringer light units (BLU); mean over the file's lines of this peptide [1]: 1870
normalised SPOT signal, Boehringer light units (BLU); mean over the file's lines of this peptide [2]: 43
normalised SPOT signal, Boehringer light units (BLU); mean over the file's lines of this peptide [3]: 51.1
normalised SPOT signal, Boehringer light units (BLU); mean over the file's lines of this peptide [4]: 2430
normalised SPOT signal, Boehringer light units (BLU); mean over the file's lines of this peptide [5]: 603

B22: YLR143W 388-401 (peptide)
chain: KYGPLPPSRASVGS
normalised SPOT signal, Boehringer light units (BLU); mean over the file's lines of this peptide [1]: 551
normalised SPOT signal, Boehringer light units (BLU); mean over the file's lines of this peptide [2]: 41.5
normalised SPOT signal, Boehringer light units (BLU); mean over the file's lines of this peptide [3]: 65.7
normalised SPOT signal, Boehringer light units (BLU); mean over the file's lines of this peptide [4]: 2010
normalised SPOT signal, Boehringer light units (BLU); mean over the file's lines of this peptide [5]: 488
